Assay results as given in patent US20260152568A1 (NECTIN THERAPEUTICS, published 2026).
Numbering of substitutions follows the chain as printed. Names may count otherwise.

T1: human PVR (SPR of the humanized variants, Example 5) (human, UniProt P15151 21-343)
T1 sequence: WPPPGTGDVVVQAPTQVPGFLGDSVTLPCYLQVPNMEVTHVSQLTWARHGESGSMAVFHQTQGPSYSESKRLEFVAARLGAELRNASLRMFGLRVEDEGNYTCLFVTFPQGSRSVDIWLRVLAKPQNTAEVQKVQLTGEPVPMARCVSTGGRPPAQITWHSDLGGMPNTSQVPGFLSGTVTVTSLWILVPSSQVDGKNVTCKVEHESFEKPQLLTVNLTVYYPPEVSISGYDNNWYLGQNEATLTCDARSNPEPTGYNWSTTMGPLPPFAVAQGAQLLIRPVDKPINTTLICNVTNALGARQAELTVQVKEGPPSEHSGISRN

T2: PVR conjugated to Histidine tag (PVR-HIS, Sino Cat. no. 10109-H08H) (Homo sapiens (Human), UniProt P15151 21-343)
T2 construct: Bought reagent; also called PVR-HIS tagged
T2 sequence: T1 sequence

T3: chlorocebus (African green monkey) PVR expressed on Vero cells (chlorocebus (African green monkey), UniProt P32506 21-417)
T3 construct: whole, on cells; also called chlorocebus PVR
T3 sequence (looked up): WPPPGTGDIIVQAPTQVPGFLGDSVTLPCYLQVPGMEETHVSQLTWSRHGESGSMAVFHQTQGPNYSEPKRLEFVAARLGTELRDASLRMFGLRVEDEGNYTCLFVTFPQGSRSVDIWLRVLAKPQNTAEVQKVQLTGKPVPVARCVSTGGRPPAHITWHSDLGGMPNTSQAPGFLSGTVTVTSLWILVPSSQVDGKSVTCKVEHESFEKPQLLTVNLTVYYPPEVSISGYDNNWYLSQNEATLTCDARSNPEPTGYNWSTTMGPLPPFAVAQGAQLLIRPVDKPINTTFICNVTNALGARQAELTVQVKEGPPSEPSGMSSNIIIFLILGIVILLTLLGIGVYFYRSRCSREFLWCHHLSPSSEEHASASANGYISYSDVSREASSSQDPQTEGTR

B1: humanized 5B9 variant VH3/VK2 (antibody, V domains shown)
VH: QVQLVQSGAEVKKPGASVKVSCKATGYTFSNYWIEWIKQAPGQGLEWIGEIFPGSGRINFNEKFKGRVTFTADTSISTTYMELSRLRSDDTAVYYCARTKIYGNSFDYWGQGTLVTVSS
VL: DIQMTQSPSSLSASVGDRVTITCKASQDVGTAVVWYQQKPGKAPKLLIYWASSRHEGVPDRFSGSGSGTDFTLTISSLQPEDFADYFCQQYSRYPLTFGQGTKLEIK
B2: humanized 5B9 variant VH4/VK3 (antibody, V domains shown)
VH: B1 VH with I37V, K38R
VL: B1 VL with K24R, D60S, D85T
B3: humanized 5B9 variant VH2/VK1 (antibody, V domains shown)
VH: B1 VH with V20I, V68A, S77D
VL: B1 VL with Q3M, S10F, S63T, P80S
B4: humanized 5B9 variant VH3/VK3 (antibody, V domains shown)
VH: B1 VH
VL: B1 VL with K24R, D60S, D85T
B5: humanized 5B9 variant VH2/VK3 (antibody, V domains shown)
VH: B1 VH with V20I, V68A, S77D
VL: B1 VL with K24R, D60S, D85T
B6: humanized 5B9 variant VH3/VK1 (antibody, V domains shown)
VH: B1 VH
VL: B1 VL with Q3M, S10F, S63T, P80S
B7: humanized 5B9 variant VH1/VK3 (antibody, V domains shown)
VH: B1 VH with V11L, V20I, V68A, S77D, E82Q, R85S, R87T, T91S, L114T
VL: B1 VL with K24R, D60S, D85T
B8: humanized 5B9 variant VH5/VK3 (antibody, V domains shown)
VH: B1 VH with I37V, K38R, I48M, T79A
VL: B1 VL with K24R, D60S, D85T
B9: humanized 5B9 variant VH4/VK1 (antibody, V domains shown)
VH: B1 VH with I37V, K38R
VL: B1 VL with Q3M, S10F, S63T, P80S
B10: IgG4(S241P)_N56E_VH2/Vκ4 (antibody, V domains shown)
VH: B1 VH with V20I, V68A, S77D
VL: B1 VL with K24R, V34A, L46S, D60S, D85T
notes: humanized 5B9 variant with Vk4; also called VH2/Vk4
B11: humanized 5B9 variant VH2/VK2 (antibody, V domains shown)
VH: B1 VH with V20I, V68A, S77D
VL: B1 VL
B12: humanized 5B9 variant VH1/VK2 (antibody, V domains shown)
VH: B1 VH with V11L, V20I, V68A, S77D, E82Q, R85S, R87T, T91S, L114T
VL: B1 VL
B13: IgG4(S241P)_N56E_VH3/Vκ4 (antibody, V domains shown)
VH: B1 VH
VL: B1 VL with K24R, V34A, L46S, D60S, D85T
notes: humanized 5B9 variant with Vk4, as IgG4; also called VH3/Vk4
B14: IgG4(S241P)_N56E_VH5/Vκ4 (antibody, V domains shown)
VH: B1 VH with I37V, K38R, I48M, T79A
VL: B1 VL with K24R, V34A, L46S, D60S, D85T
notes: humanized 5B9 variant with Vk4; also called VH5/Vk4
B15: humanized 5B9 variant VH5/VK2 (antibody, V domains shown)
VH: B1 VH with I37V, K38R, I48M, T79A
VL: B1 VL
B16: humanized 5B9 variant VH5/VK1 (antibody, V domains shown)
VH: B1 VH with I37V, K38R, I48M, T79A
VL: B1 VL with Q3M, S10F, S63T, P80S
B17: IgG4(S241P)_N56E_VH0/Vκ1 (antibody, V domains shown)
VH: QVQLQQSGAELMKPGASVKISCKATGYTFSNYWIEWIKQRPGHGLEWIGEIFPGSGRINFNEKFKGKATFTADTSSDTTYMQLSSLTSADSAVYYCARTKIYGNSFDYWGQGTTLTVSP
VL: B1 VL with Q3M, S10F, S63T, P80S
notes: half-humanized control pairing; also called VH0/Vk1
B18: humanized 5B9 variant VH1/VK1 (antibody, V domains shown)
VH: B17 VH with Q5V, M12K, R40A, H43Q, K67R, S76I, A89D, L115V, P119S
VL: B1 VL with Q3M, S10F, S63T, P80S
B19: IgG4(S241P)_N56E_VH1/Vκ4 (antibody, V domains shown)
VH: B17 VH with Q5V, M12K, R40A, H43Q, K67R, S76I, A89D, L115V, P119S
VL: B1 VL with K24R, V34A, L46S, D60S, D85T
notes: humanized 5B9 variant with Vk4; also called VH1/Vk4
B20: IgG4(S241P)_N56E_VH1/Vκ0 (antibody, V domains shown)
VH: B17 VH with Q5V, M12K, R40A, H43Q, K67R, S76I, A89D, L115V, P119S
VL: DIMMTQSHKFMSTSVGDRVNITCKASQDVGTAVVWYQQKPGQSPKLLIYWASSRHEGVPDRFTGSGSGTDFTLTISNVQSEDLSDYFCQQYSRYPLTFGAGTKLELK
notes: half-humanized control pairing; also called VH1/Vk0
B21: chimeric anti-PVR antibody 5B9 wild type, IgG4 (S241P), VH0/VK0 (antibody, V domains shown)
VH: B17 VH
VL: B20 VL with E56N
notes: Mouse/human chimeric antibody with human IgG4 (S241P) constant region; also called WT; parental N56 variant (VH0VK0)
B22: VH0/Vκ0 Pro56 (antibody, V domains shown)
VH: B17 VH
VL: B20 VL with E56P
notes: chimeric 5B9 N56 substitution variant; also called N56P

Target: T1, human PVR (SPR of the humanized …)
Assay: SPR

Row | Kd [nM] | Binder
1 | 4.32 | B1
2 | 5.11 | B2
3 | 3.96 | B3
4 | 5.42 | B4
5 | 5.14 | B5
6 | 4.56 | B6
7 | 4.98 | B7
8 | 7.41 | B8
9 | 4.62 | B9
10 | 78.3 | B10
11 | 4.67 | B11
12 | 4.01 | B12
13 | 75.2 | B13
14 | 76.8 | B14
15 | 5.68 | B15
16 | 5.91 | B16
17 | 4.03 | B17
18 | 4.17 | B18
19 | 69.3 | B19
20 | 4.5 | B20

Target: T1, human PVR (SPR of the humanized …)
Assay: SPR; relative to N56E VH0/Vκ0

Row | Relative KD | Binder
21 | 0.78 | B1
22 | 0.92 | B2
23 | 0.71 | B3
24 | 0.98 | B4
25 | 0.93 | B5
26 | 0.82 | B6
27 | 0.9 | B7
28 | 1.34 | B8
29 | 0.83 | B9
30 | 14.1 | B10
31 | 0.84 | B11
32 | 0.72 | B12
33 | 13.6 | B13
34 | 13.9 | B14
35 | 1.03 | B15
36 | 1.07 | B16
37 | 0.73 | B17
38 | 0.75 | B18
39 | 12.5 | B19
40 | 0.81 | B20

Target: human poliovirus receptor (PVR, CD155) expressed on cells (human) (UniProt P15151)
Assay: flow cytometry, binding to PVR-expressing HEK 293 cells

Row | EC50 [nM] | Binder
41 | 0.52 | B1
42 | 0.59 | B2
43 | 0.53 | B4
44 | 0.6 | B5
45 | 0.57 | B8
46 | 0.64 | B11
47 | 0.64 | B15

Target: T2, PVR conjugated to Histidine tag …
Assay: SPR (Biacore T200); KD divided by the KD of VH0/Vκ0 WT
Experimental: FIGS. 1A-1B. Affinity and competition assays of N56 substitutions. FIG. 1A. […] Biacore assay showing relative and absolute affinity of the N56 substitutions (hIgG4 variants) to PVR-HIS tagged (Sino Cat. no. 10109-H08H). Affinity shift of >25% were considered significant.
(§1) Seven chimeric variants were generated by introducing a point mutation at residue asparagine N56. […] Binding was tested for the analyte PVR conjugated to Histidine tag (PVR-HIS, Sino Cat. no. 10109-H08H). Dilution range: Five point two-fold dilution from 50 nM to 3.125 nM. Conditions used: Instrument: Biacore T200 (serial no. 1909913) running Biacore T200 Evaluation Software V2.0.1. Running buffer: HBS-P+, 300 mM NaCl, 1 mg/ml BSA. Flow rate: […]. Association: 350 s, Dissociation: 800 s. Regeneration: 10 mM glycine pH 1.5. Analysis: 1:1 binding.

Row | Relative KD | Binder
48 | 1 | B21
49 | 1.48 | B22

Target: human poliovirus receptor (PVR, CD155) expressed on cells (human) (UniProt P15151)
Assay: flow cytometry, binding to PVR-expressing HEK 293 cells; relative to N56E VH0/Vκ0

Row | Relative EC50 | Binder
50 | 0.66 | B1
51 | 0.75 | B2
52 | 0.68 | B4
53 | 0.76 | B5
54 | 0.72 | B8
55 | 0.81 | B11
56 | 0.82 | B15

Target: T3, chlorocebus (African green monkey) PVR …
Assay: flow cytometry, 10 ug/ml antibody on Vero cells; MFI divided by the MFI of K0
Experimental: FIGS. 2A-2B. […] To assess maximal binding, saturating dose (10 ug/ml) of the N56 variant monoclonal antibodies (shown at the X axis) were used to stain PVR-expressing cells, and mean fluorescence intensity (MFI) values were determined by FACS analysis. […] (FIG. 2A) NCI-H1975 (human lung) cells and (FIG. 2B) Vero (African green monkey kidney) cells. Affinity shifts of >25% were considered significant.
The binding of the N56 substitution variant antibodies to cell bound PVR of human (protein id: Q92692) and chlorocebus (African green monkey, protein id: UniProtKB—P32506) was examined. FIG. 2A depicts the relative binding of all variants, which were added in saturating concentration (10 ug/ml), to NCI-H1975 cells expressing human PVR. FIG. 2B depicts the relative binding of all variants, which were added in saturating concentration (10 ug/ml), to Vero cells expressing chlorocebus PVR. […] Cell binding of the Abs was analyzed by FACS.

Row | Fold change MFI | Binder
57 | 1 | B21

Target: T2, PVR conjugated to Histidine tag …
Assay: SPR (Biacore T200), antibody captured on Protein A chip, PVR-HIS as analyte, 1:1 binding
Experimental: as §1

Row | Kd [nM] | koff [s⁻¹] | kon [M⁻¹ s⁻¹] | Binder
58 | 5.12 | 0.000715 | 140000 | B21
59 | 7.58 | 0.00105 | 138000 | B22
